Measurements from IntAct's records for PubMed 21151871.

B1: Guanylate-binding protein 1 (Homo sapiens), P32455 (parent)
chain: MASEIHMTGPMCLIENTNGRLMANPEALKILSAITQPMVVVAIVGLYRTGKSYLMNKLAGKKKGFSLGSTVQSHTKGIWMWCVPHPKKPGHILVLLDTEGLGDVEKGDNQNDSWIFALAVLLSSTFVYNSIGTINQQAMDQLYYVTELTHRIRSKSSPDENENEVEDSADFVSFFPDFVWTLRDFSLDLEADGQPLTPDEYLTYSLKLKKGTSQKDETFNLPRLCIRKFFPKKKCFVFDRPVHRRKLAQLEKLQDEELDPEFVQQVADFCSYIFSNSKTKTLSGGIQVNGPRLESLVLTYVNAISSGDLPCMENAVLALAQIENSAAVQKAIAHYEQQMGQKVQLPTETLQELLDLHRDSEREAIEVFIRSSFKDVDHLFQKELAAQLEKKRDDFCKQNQEASSDRCSALLQVIFSPLEEEVKAGIYSKPGGYRLFVQKLQDLKKKYYEEPRKGIQAEEILQTYLKSKESMTDAILQTDQTLTEKEKEIEVERVKAESAQASAKMLQEMQRKNEQMMEQKERSYQEHLKQLTEKMENDRVQLLKEQERTLALKLQEQEQLLKEGFQKESRIMKNEIQDLQTKMRRRKACTIS
partner: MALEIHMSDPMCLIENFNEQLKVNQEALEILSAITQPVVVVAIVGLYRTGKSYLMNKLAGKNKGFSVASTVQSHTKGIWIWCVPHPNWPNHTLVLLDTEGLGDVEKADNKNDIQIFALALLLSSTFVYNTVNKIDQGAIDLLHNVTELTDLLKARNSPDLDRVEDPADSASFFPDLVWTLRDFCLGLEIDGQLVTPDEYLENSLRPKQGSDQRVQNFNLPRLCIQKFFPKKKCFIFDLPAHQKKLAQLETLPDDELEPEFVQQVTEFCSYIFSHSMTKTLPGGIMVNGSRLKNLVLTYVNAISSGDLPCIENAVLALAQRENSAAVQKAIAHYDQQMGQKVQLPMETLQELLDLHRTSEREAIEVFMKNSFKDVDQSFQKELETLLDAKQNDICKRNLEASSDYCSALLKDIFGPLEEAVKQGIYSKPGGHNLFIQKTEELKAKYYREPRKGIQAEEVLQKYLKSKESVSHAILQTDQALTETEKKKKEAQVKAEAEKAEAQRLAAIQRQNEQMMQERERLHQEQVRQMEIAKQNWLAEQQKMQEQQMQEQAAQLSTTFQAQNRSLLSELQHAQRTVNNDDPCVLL
B2: Guanylate-binding protein 1 (Homo sapiens), P32455 (parent)
chain: B1 chain
partner: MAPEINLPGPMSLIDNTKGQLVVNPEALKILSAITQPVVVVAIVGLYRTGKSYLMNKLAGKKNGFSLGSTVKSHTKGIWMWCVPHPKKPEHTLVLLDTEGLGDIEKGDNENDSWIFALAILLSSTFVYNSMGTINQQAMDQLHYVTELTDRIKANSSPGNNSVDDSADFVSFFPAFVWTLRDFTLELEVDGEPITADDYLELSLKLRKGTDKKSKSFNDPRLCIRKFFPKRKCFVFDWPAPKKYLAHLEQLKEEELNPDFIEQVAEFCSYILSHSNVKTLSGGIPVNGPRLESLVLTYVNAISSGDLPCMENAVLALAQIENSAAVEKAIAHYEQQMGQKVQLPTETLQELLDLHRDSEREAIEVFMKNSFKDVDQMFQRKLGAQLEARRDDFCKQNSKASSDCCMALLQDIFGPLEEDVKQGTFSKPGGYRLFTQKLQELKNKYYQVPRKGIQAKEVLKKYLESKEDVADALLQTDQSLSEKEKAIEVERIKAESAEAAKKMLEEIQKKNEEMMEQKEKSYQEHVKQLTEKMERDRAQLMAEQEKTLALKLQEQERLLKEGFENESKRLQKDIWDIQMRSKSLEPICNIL

Variants of: B1
Details: with gbp5_human GBP5, Q96PP8

Row | Variant | effect of a mutation on the interaction
1 | K51A | disrupting interaction strength

Variants of: B2
Details: with gbp2_human GBP2, P32456

Row | Variant | effect of a mutation on the interaction
2 | K51A | disrupting interaction strength
